According to publication PMC12080921 (2025):

B1: biotinylated bovine FI (enzyme)
chain 1: EDNFRKRGKSKAVKKSEAHHAPEASLSKETEASSEVKPTSTQDTSQKDFVDKKCLTEKHTHLSCNKVFCQPWQKCIDGTCLCKLPYQCPKNGTRVCSTNGKSYSTYCQQKSFECYRPEAKFLKSGACTGGGQFSVSLSNGKQDSEGIVAVKLADLDTKMFVCGDSWSITEANVACIDRGFQLGALDTHRRDPDPNSAECLHVRCRGLETSLAECTFTKGVHNSEGLAGVVCYTESAAPPKKDSFQCVNGKRIPQKKACDGVNDCVDKSDELCCKDCRGEGFLCKSGVCIPKQYKCNGELDCITGEDEVGCEETGHPEIKEAAEMLTADMDAERKFTKSFLPKLSCGVKNNMHI
chain 2: VVGGKPAKMGEFPWQMAIKEGDKIHCGGIYIGGCWILTAAHCVRISRMHRYQIWTSFTDWLRPGFQTVVHSVNRIIIHENYNGTTYQNDIALIEMKKRPNEKECVLSKSIPACVPWSPYLFQPNDKCIVSGWGREKDNQKVYSLRWGEVHLINNCSEFYPGRYFEKEMQCAGTDDGSIDACKGDSGGPLVCQDVNNVTYVWGVVSWGENCGKSEFPGVYTKVANYFDWISQHVGRSLISQHNI
modifications: biotin (EZ-link NHS-biotin; sites not stated) | biotin (EZ-link NHS-biotin; sites not stated)
B2: PmSLP-1^15-318 (domain or fragment)
chain: MEKRTVTIPQAQKVAEKPALTIQTVVTSPTTPIKAPSLAPTIDTAPKQNPVPTAQITATLPAEPVKVPVLIPEVNKTLLETSTNPVKDSYNKDAVFTYELIANPDADYSDQKLILKKEISYIKLNLGINQDNKNAPSYIFNLLDDNVYYGFYRDTQDMNRIENKYTYAFKKEAENFDNLQKFNATYEGQFWFSSIDTPNVPTVARAFLTYNNGRVDGEILAKHWNEKLFQITGFDNNPRKVEIFPTVEYLPNSGTRLTKGATSPHRFQMDLHFINSTNGEKNKYLVGQGSTEQYWGVLGMEKKQELALVPR

Assays:
[1] = molecular target: T1, PmSLP-1^95-318 SERp (Pasteurella multocida strain 36950); experiment: BLI
[2] = molecular target: T1, PmSLP-1^95-318 SERp; experiment: BLI; kinetic fit
[3] = molecular target: B1; experiment: BLI
[4] = molecular target: B1; experiment: BLI; kinetic fit

| Binder | koff [1] [s⁻¹] | Kd [2] [nM] | koff [3] [s⁻¹] | Kd [4] [nM] |
| --- | --- | --- | --- | --- |
| B1 | 0.008 | 30 | – | – |
| B2 | – | – | 0.0059 | 18 |
